From the supplement of paper PMC10471632, “Protein engineering and iterative multimodule optimization for vitamin B6 production in Escherichia coli” (Nature Communications, 2023)
± gives the standard deviation of the averaged measurements.

B1: library; numbered along this chain (parent)
chain: MAELLLGVNIDHIATLRNARGTAYPDPVQAAFIAEQAGADGITVHLREDRRHITDRDVRILRQTLDTRMNLEMAVTEEMLAIAVETKPHFCCLVPEKRQEVTTEGGLDVAGQRDKMRDACKRLADAGIQVSLFIDADEEQIKAAAEVGAPFIEIHTGCYADAKTDAEQAQELARIAKAATFAASLGLKVNAGHGLTYHNVKAIAAIPEMHELNIGHAIIGRAVMTGLKDAVAEMKRLMLEARG

Variants of: B1
Assay: pyridoxine titer in culture supernatant of strain expressing the PdxJ variant; higher = more PN produced (higher in vivo pathway activity of the PdxJ variant)
Conditions: host strain: E. coli LL006; 48 h; temperature: 37 °C; FM1.4
Experimental: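 Rosetta-designed single to quadruple mutants of E. coli PdxJ (PNP synthase) were expressed from pRSFDuet-1 in the engineered chassis E. coli LL006 (MG1655 ΔpdxH::pdxST, pta::Eme_pdxP). Strains were grown in 24 deep-well plates in 2 mL FM1.4 glycerol medium at 37 °C and 800 rpm for 48 h. Extracellular pyridoxine (PN) titer was quantified by HPLC with fluorescence detection; two biological replicates, with the WT pdxJ strain (LL137, about 0.5 mg/L) as control.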

G21M T103L and G21M T196C are within error of each other in pyridoxine titer: 0.63 ± 0.33 mg/L for the first, 0.68 ± 0.042 mg/L for the second.

Compared with G21M V44I T196C, T22V is 1.5-fold lower in pyridoxine titer: 1.94 ± 0.23 mg/L for the first, 1.29 ± 0.091 mg/L for the second.

Going from T22V A23T to T22V L212I, the pyridoxine titer falls from 1.74 ± 0.23 mg/L to 0.55 ± 0.13 mg/L (3.2-fold).

A23T and A23T A217V are within error of each other in pyridoxine titer: 0.981 ± 0.014 mg/L for the first, 1.12 ± 0.18 mg/L for the second.

First: A23T E100I G194Q I219G
Second: A23T E100I I219G
The pyridoxine titer of the first is 3.3-fold lower: 2.67 ± 0.14 mg/L for the first, 8.72 ± 0.52 mg/L for the second.

Compared with A23T E104T G194K L212I, A23T E104T I154L is 6.6-fold higher in pyridoxine titer: 0.349 ± 0.013 mg/L for the first, 2.31 ± 0.92 mg/L for the second.

A23T E104T L212I and A23T E104T T196V L212I are within error of each other in pyridoxine titer: 3.44 ± 1.2 mg/L for the first, 2.61 ± 0.1 mg/L for the second.

Compared with A23T G194C I219G, A23T G194C T196F I219G is 3.7-fold lower in pyridoxine titer: 0.873 ± 0.37 mg/L for the first, 0.237 ± 0.011 mg/L for the second.

Compared with A23T G194C T196M I219G, A23T H155I L212I is 11-fold lower in pyridoxine titer: 6.96 ± 5.8 mg/L for the first, 0.63 ± 0.014 mg/L for the second.

A23T I154L and A23T I218L are within error of each other in pyridoxine titer: 1.23 ± 0.099 mg/L for the first, 1.04 ± 0.45 mg/L for the second.

First: A23T I218L I219V
Second: A23T I219G
The pyridoxine titer of the first is 7.6-fold higher: 5.75 ± 0.16 mg/L for the first, 0.76 ± 0.16 mg/L for the second.

A23T L212I and A23T T103L L212I are within error of each other in pyridoxine titer: 1.09 ± 0.79 mg/L for the first, 0.46 ± 0.014 mg/L for the second.

First: A23T T196W L212I
Second: A23T V44I E104T L212I
The pyridoxine titer of the first is 2.9-fold lower: 1.71 ± 0.54 mg/L for the first, 4.95 ± 0.43 mg/L for the second.

Compared with A23T V44I L212I, A23T V44I L212I I219W is 2.1-fold lower in pyridoxine titer: 6.75 ± 0.099 mg/L for the first, 3.27 ± 0.26 mg/L for the second.

Compared with A23T V44I T196R L212I, A23T V44I T196V L212I is 2.2-fold lower in pyridoxine titer: 3.37 ± 1.5 mg/L for the first, 1.53 ± 0.17 mg/L for the second.

Going from A23T V44I T196W L212I to A23T V44I V101L L212I, the pyridoxine titer rises from 2.89 ± 0.96 mg/L to 8.38 ± 1.2 mg/L (2.9-fold).

First: A23T Y24V
Second: A23Y E104T G194C I218L
The pyridoxine titer of the first is 1.8-fold higher: 0.39 ± 0.028 mg/L for the first, 0.22 ± 0.013 mg/L for the second.

Compared with Y24I, Y24I E100I is 9.7-fold higher in pyridoxine titer: 0.0833 ± 0.01 mg/L for the first, 0.81 ± 0.028 mg/L for the second.

First: Y24I I219G
Second: V44C G194C N213I I218L
The pyridoxine titer of the first is 2.2-fold lower: 0.95 ± 0.23 mg/L for the first, 2.07 ± 0.077 mg/L for the second.

V44I and E100I are within error of each other in pyridoxine titer: 0.719 ± 0.33 mg/L for the first, 0.906 ± 0.17 mg/L for the second.

E100I E104T and E100I L212I are within error of each other in pyridoxine titer: 0.98 ± 0.2 mg/L for the first, 0.67 ± 0.47 mg/L for the second.

First: E100I T103L L212I
Second: E100I V101L
The pyridoxine titer of the first is 3.2-fold lower: 0.66 ± 0.47 mg/L for the first, 2.12 ± 0.11 mg/L for the second.

E100I V101L L212I and E100I V101L T196C are within error of each other in pyridoxine titer: 0.86 ± 0.3 mg/L for the first, 0.81 ± 0.21 mg/L for the second.

E100I V101L T196C A217M and E100M V101L T196C are within error of each other in pyridoxine titer: 2 ± 0.12 mg/L for the first, 2.12 ± 0.38 mg/L for the second.

Compared with V101L, V101L A217V is 1.6-fold lower in pyridoxine titer: 1.19 ± 0.086 mg/L for the first, 0.74 ± 0.2 mg/L for the second.

Compared with V101L E104T A217V, V101L E104T L212I is 2.4-fold lower in pyridoxine titer: 1.17 ± 0.057 mg/L for the first, 0.49 ± 0.028 mg/L for the second.

V101L L212I and V101L T103L L212I are within 1.5-fold of each other in pyridoxine titer: 0.72 ± 0.042 mg/L for the first, 0.81 ± 0.014 mg/L for the second.

Compared with V101L T196C, V101L T196C L212I is 3.4-fold higher in pyridoxine titer: 2.16 ± 0.085 mg/L for the first, 7.33 ± 0.48 mg/L for the second.

T103L and T103L L212I are within error of each other in pyridoxine titer: 3.2 ± 0.14 mg/L for the first, 3 ± 0.58 mg/L for the second.

Going from T103L L212I A217V to T103L T196C L212I, the pyridoxine titer falls from 0.903 ± 0.052 mg/L to 0.33 mg/L (2.7-fold).

First: E104T
Second: E104T A217V
The pyridoxine titer of the first is 3.4-fold lower: 0.334 ± 0.033 mg/L for the first, 1.12 ± 0.014 mg/L for the second.

First: E104T G194C I218L
Second: E104T G194C I218L I219L
The pyridoxine titer of the first is 2.2-fold higher: 9.71 ± 0.22 mg/L for the first, 4.45 ± 0.41 mg/L for the second.

E104T G194C T196V I218L and E104T G194C T196Y I218L are within error of each other in pyridoxine titer: 6.11 ± 7.1 mg/L for the first, 0.557 ± 0.059 mg/L for the second.

E104T I218L and E104T I219G are within error of each other in pyridoxine titer: 0.75 ± 0.085 mg/L for the first, 2.75 ± 3.3 mg/L for the second.

E104T L212I and I154L are within error of each other in pyridoxine titer: 2.65 ± 0.071 mg/L for the first, 1.72 ± 1.6 mg/L for the second.

Going from I154L I219G to H155I, the pyridoxine titer rises from 1.93 mg/L to 3.05 ± 1.1 mg/L (1.6-fold).

Going from H155I I218L to H155I L212I, the pyridoxine titer falls from 0.66 ± 0.014 mg/L to 0.36 mg/L (1.8-fold).

Compared with H155I N213I, G194C is 2.5-fold higher in pyridoxine titer: 0.26 mg/L for the first, 0.64 ± 0.33 mg/L for the second.

First: G194C I218L
Second: G194C L195I
The pyridoxine titer of the first is 5.1-fold higher: 1.33 ± 0.76 mg/L for the first, 0.26 mg/L for the second.

First: G194C N213I I218L
Second: G194C T196V N213I I218L
The pyridoxine titer of the first is 4-fold higher: 9.12 ± 0.45 mg/L for the first, 2.28 ± 1 mg/L for the second.

L195G L212I and L195I are within error of each other in pyridoxine titer: 0.89 ± 0.014 mg/L for the first, 0.848 ± 0.15 mg/L for the second.

First: L195I T196C
Second: T196C
The pyridoxine titer of the first is 3-fold lower: 0.41 ± 0.014 mg/L for the first, 1.21 ± 0.38 mg/L for the second.

First: T196C I218L
Second: T196C L212I
The pyridoxine titer of the first is 3-fold lower: 0.22 ± 0.057 mg/L for the first, 0.66 ± 0.014 mg/L for the second.

Compared with L212I, L212I A217V is 7.1-fold lower in pyridoxine titer: 4.92 ± 3.9 mg/L for the first, 0.69 ± 0.042 mg/L for the second.

Going from N213I to N213I I218L, the pyridoxine titer falls from 1.76 ± 0.13 mg/L to 1.1 ± 0.14 mg/L (1.6-fold).

Compared with A217V, A217V I219G is 5.1-fold lower in pyridoxine titer: 3.92 ± 2 mg/L for the first, 0.77 ± 0.11 mg/L for the second.

First: I218V
Second: I219G
The pyridoxine titer of the first is 3.5-fold lower: 0.374 ± 0.063 mg/L for the first, 1.3 ± 0.31 mg/L for the second.
